System: Escherichia coli TOP10
Experiment: shrunken log2 fold change of peptide-encoding DNA abundance (4.5 h post-induction vs induction); higher = less antimicrobial activity (less host growth inhibition)
Details: time post-induction: 4.5 h; library: site-saturation at positions 5, 18, 19, 20
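Also: peptides expressed intracellularly from a pBAD plasmid library in pooled LB shake-flask culture, induced with 0.3% L-arabinose, DNA abundance read by NGS, three biological replicates, DESeq2 with apeglm shrinkage.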

First: RRIRCRPPRLPRPRPRPVWVPRP
Second: RRIRRRPPRLPRPRPRPTAFPRP
The “shrunken log2 fold change” value of the first is lower: 0.195 for the first, 1.31 for the second.

RRIRKRPPRLPRPRPRPEIQPRP and RRIRWRPPRLPRPRPRPVHMPRP are within 0.2 log units of each other in “shrunken log2 fold change” value: -0.0762 for the first, -0.0785 for the second.

Compared with RRIRIRPPRLPRPRPRPQVKPRP, RRIRERPPRLPRPRPRPAHCPRP is higher in “shrunken log2 fold change” value: -0.405 for the first, 0.0518 for the second.

RRIRRRPPRLPRPRPRPCLQPRP and RRIRDRPPRLPRPRPRPSMCPRP are within 0.2 log units of each other in “shrunken log2 fold change” value: -0.0554 for the first, 0.123 for the second.

RRIRTRPPRLPRPRPRPWISPRP and RRIRYRPPRLPRPRPRPVDKPRP are within 0.2 log units of each other in “shrunken log2 fold change” value: -0.0102 for the first, -0.00804 for the second.

Going from RRIRCRPPRLPRPRPRPCVYPRP to RRIRVRPPRLPRPRPRPASMPRP, the “shrunken log2 fold change” value rises from -0.411 to 0.0106.

RRIRIRPPRLPRPRPRPTHWPRP and RRIRFRPPRLPRPRPRPFWLPRP are within 0.2 log units of each other in “shrunken log2 fold change” value: 0.133 for the first, 0.0058 for the second.

Going from RRIRFRPPRLPRPRPRPFICPRP to RRIRRRPPRLPRPRPRPTAVPRP, the “shrunken log2 fold change” value rises from -0.65 to 0.606.

First: RRIRMRPPRLPRPRPRPWVTPRP
Second: RRIRARPPRLPRPRPRPVVGPRP
The “shrunken log2 fold change” value of the first is lower: -0.15 for the first, 0.5 for the second.

RRIRDRPPRLPRPRPRPKSLPRP and RRIRARPPRLPRPRPRPLVTPRP are within 0.2 log units of each other in “shrunken log2 fold change” value: 0.196 for the first, 0.178 for the second.

First: RRIRARPPRLPRPRPRPLYGPRP
Second: RRIRCRPPRLPRPRPRPNYFPRP
The “shrunken log2 fold change” value of the first is higher: -0.203 for the first, -0.763 for the second.

First: RRIRVRPPRLPRPRPRPEFHPRP
Second: RRIRKRPPRLPRPRPRPLRSPRP
The “shrunken log2 fold change” value of the first is lower: -0.489 for the first, 0.962 for the second.

Going from RRIRCRPPRLPRPRPRPTNIPRP to RRIRQRPPRLPRPRPRPNSGPRP, the “shrunken log2 fold change” value rises from -0.662 to -0.0316.

Going from RRIRQRPPRLPRPRPRPIHNPRP to RRIRVRPPRLPRPRPRPYCHPRP, the “shrunken log2 fold change” value rises from -0.464 to -0.0116.

Going from RRIRCRPPRLPRPRPRPGEMPRP to RRIRHRPPRLPRPRPRPRPTPRP, the “shrunken log2 fold change” value rises from 0.438 to 0.759.

Compared with RRIRIRPPRLPRPRPRPVAFPRP, RRIRGRPPRLPRPRPRPWQVPRP is higher in “shrunken log2 fold change” value: -0.306 for the first, -0.00145 for the second.

RRIRARPPRLPRPRPRPEKAPRP and RRIRHRPPRLPRPRPRPPSKPRP are within 0.2 log units of each other in “shrunken log2 fold change” value: 0.046 for the first, -0.122 for the second.

RRIRRRPPRLPRPRPRPEARPRP and RRIRMRPPRLPRPRPRPGYFPRP are within 0.2 log units of each other in “shrunken log2 fold change” value: 0.172 for the first, 0.0909 for the second.

Compared with RRIRRRPPRLPRPRPRPLIKPRP, RRIRFRPPRLPRPRPRPNIAPRP is lower in “shrunken log2 fold change” value: -0.0254 for the first, -0.255 for the second.

Going from RRIRSRPPRLPRPRPRPKDGPRP to RRIRCRPPRLPRPRPRPLGPPRP, the “shrunken log2 fold change” value falls from 0.307 to 0.106.

Compared with RRIRERPPRLPRPRPRPWGMPRP, RRIRPRPPRLPRPRPRPRNAPRP is higher in “shrunken log2 fold change” value: 0.115 for the first, 0.39 for the second.

RRIRGRPPRLPRPRPRPSLFPRP and RRIRPRPPRLPRPRPRPPHTPRP are within 0.2 log units of each other in “shrunken log2 fold change” value: 0.442 for the first, 0.398 for the second.

RRIRDRPPRLPRPRPRPCQYPRP and RRIRCRPPRLPRPRPRPRDKPRP are within 0.2 log units of each other in “shrunken log2 fold change” value: -0.0971 for the first, 0.0174 for the second.

Going from RRIRYRPPRLPRPRPRPIMIPRP to RRIRARPPRLPRPRPRPCCDPRP, the “shrunken log2 fold change” value rises from -0.0191 to 0.404.

RRIRPRPPRLPRPRPRPLTFPRP and RRIRIRPPRLPRPRPRPYDPPRP are within 0.2 log units of each other in “shrunken log2 fold change” value: -0.113 for the first, -0.0306 for the second.

RRIRSRPPRLPRPRPRPDRLPRP and RRIRERPPRLPRPRPRPSLEPRP are within 0.2 log units of each other in “shrunken log2 fold change” value: -0.168 for the first, -0.199 for the second.

First: RRIRRRPPRLPRPRPRPHVWPRP
Second: RRIRSRPPRLPRPRPRPWAGPRP
The “shrunken log2 fold change” value of the first is higher: 0.242 for the first, -0.255 for the second.

RRIRARPPRLPRPRPRPAYRPRP and RRIRYRPPRLPRPRPRPTAPPRP are within 0.2 log units of each other in “shrunken log2 fold change” value: -0.086 for the first, -0.25 for the second.

First: RRIRKRPPRLPRPRPRPYHNPRP
Second: RRIRKRPPRLPRPRPRPWCWPRP
The “shrunken log2 fold change” value of the first is lower: -0.227 for the first, 0.357 for the second.

First: RRIRGRPPRLPRPRPRPGVKPRP
Second: RRIRCRPPRLPRPRPRPCGVPRP
The “shrunken log2 fold change” value of the first is higher: 0.588 for the first, 0.0257 for the second.

Going from RRIRGRPPRLPRPRPRPNKIPRP to RRIRRRPPRLPRPRPRPQEYPRP, the “shrunken log2 fold change” value falls from 0.214 to -0.0725.

Compared with RRIRVRPPRLPRPRPRPNMCPRP, RRIRCRPPRLPRPRPRPLLWPRP is higher in “shrunken log2 fold change” value: -0.576 for the first, 0.671 for the second.

Going from RRIRIRPPRLPRPRPRPWTEPRP to RRIRRRPPRLPRPRPRPDQMPRP, the “shrunken log2 fold change” value rises from -0.843 to -0.0181.

Compared with RRIRDRPPRLPRPRPRPNYSPRP, RRIRERPPRLPRPRPRPSTNPRP is higher in “shrunken log2 fold change” value: -0.792 for the first, -0.317 for the second.

RRIRERPPRLPRPRPRPKYDPRP and RRIRSRPPRLPRPRPRPTMNPRP are within 0.2 log units of each other in “shrunken log2 fold change” value: -0.0434 for the first, -0.225 for the second.

RRIRSRPPRLPRPRPRPVTHPRP and RRIRNRPPRLPRPRPRPPLYPRP are within 0.2 log units of each other in “shrunken log2 fold change” value: -0.152 for the first, -0.101 for the second.

RRIRARPPRLPRPRPRPSDFPRP and RRIRQRPPRLPRPRPRPFTSPRP are within 0.2 log units of each other in “shrunken log2 fold change” value: 0.0983 for the first, -0.00281 for the second.

With RRIRVRPPRLPRPRPRPHPLPRP the “shrunken log2 fold change” value was -0.435.

From the supplement of paper PMC9112550, “Optimization of the antimicrobial peptide Bac7 by deep mutational scanning” (BMC Biology, 2022)
